Measured values as given in patent US20230056252A1 (Gilead, published 2023).
Positions count from the first letter of the chain named.

Assays:
[1] = target: T1, CD3 expressed on cell-surface of primary human T cells (human, UniProt P07766 23-207; P04234 22-171); experiment: cell-based or functional assay
[2] = target: CD3 on rhesus monkey T cells in PBMCs (rhesus monkey); experiment: flow cytometry on PBMCs, % anti-huIgG+ CD4+ cells, donor rh 3483
[3] = target: T1, CD3 expressed on cell-surface of …; experiment: flow cytometry on human PBMCs, CD8+ cells, donor 4574
Description: (§1) Briefly, peripheral blood mononuclear cells (PBMCs) were incubated with different concentrations of HIV×CD3 bispecific molecules for 1 hour at RT. […] Cells were then washed, fixed/permeabilized, and analyzed using BD LSRFortessa according to the manufacturer's protocol. The percentage of α-huIgG-APC-positive CD4+ and CD8+ T cells and the mean fluorescence intensity of the α-huIgG-APC of CD4+ and CD8+ cells were collected, and data analyzed using GraphPad Prism.
(§2) Binding experiments were performed using PBMCs from two healthy human donors.

[4] = target: T1, CD3 expressed on cell-surface of …; experiment: flow cytometry on human PBMCs, CD8+ cells, donor 3761
Description: as §1, §2

[5] = target: T1, CD3 expressed on cell-surface of …; experiment: flow cytometry on PBMCs, % anti-huIgG+ CD4+ cells, donor hu 340
Description: (§3) Briefly, PBMCs from healthy human donors and healthy rhesus or cynomolgus monkey donors were incubated with different concentrations of HIV×CD3 bispecific molecules for 1 hour at RT. […] Cells were then washed, fixed/permeabilized, and analyzed on BD LSRFortessa. The percentage of α-huIgG-APC-positive CD4+ and CD8+ T cells and the mFI of the α-huIgG-APC of CD4+ and CD8+ cells were collected, and data analyzed using GraphPad Prism.

[6] = target: T1, CD3 expressed on cell-surface of …; experiment: flow cytometry on PBMCs, % anti-huIgG+ CD8+ cells, donor hu 151
Description: as §3

[7] = target: CD3 on rhesus monkey T cells in PBMCs (rhesus monkey); experiment: flow cytometry on PBMCs, % anti-huIgG+ CD8+ cells, donor rh 3563
[8] = target: T1, CD3 expressed on cell-surface of …; experiment: flow cytometry on human PBMCs, CD4+ cells, donor 4574
Description: as §1, §2

[9] = target: CD3 on rhesus monkey T cells in PBMCs (rhesus monkey); experiment: flow cytometry on PBMCs, % anti-huIgG+ CD4+ cells, donor rh 3563
[10] = target: CD3 on rhesus monkey T cells in PBMCs (rhesus monkey); experiment: flow cytometry on PBMCs, % anti-huIgG+ CD8+ cells, donor rh 3483
[11] = target: T1, CD3 expressed on cell-surface of …; experiment: flow cytometry on PBMCs, % anti-huIgG+ CD4+ cells, donor hu 151
[12] = target: T1, CD3 expressed on cell-surface of …; experiment: flow cytometry on PBMCs, % anti-huIgG+ CD8+ cells, donor hu 340
Description: as §3

[13] = target: T1, CD3 expressed on cell-surface of …; experiment: flow cytometry on human PBMCs, CD4+ cells, donor 3761
Description: as §1, §2

[14] = target: T2, MabSelect SuRe (engineered Protein A); experiment: 500 ml Expi293 expression, MabSelect SuRe capture and cation exchange; purified homodimer yield; parental reference
T2 construct: also called MabSelect SuRe column
Description: 500 ml of Expi293 cells were transfected with 0.5 mg DNA encoding selected huSP34 scFv-Fc Protein A knockout variants according to manufacturer's protocol. Four days post transfection, the cell-free clarified supernatant was collected and loaded to a MabSelect™ SuRe™ (Cytiva Life Sciences) column. Afterwards the column was washed with a low salt buffer of 25 mM Tris HCl pH 7.5, 25 mM NaCl for 10 column volumes (CV), then high salt wash of 25 mM Tris HCl pH 7.5, 500 mM NaCl for 5CV to remove non-specific binding, and finally washed with a low salt wash of 25 mM Tris HCl pH 7.5, 25 mM NaCl for 10CV. To elute the antibody, an isocratic elution step of 100 mM sodium acetate pH 3.7 was performed. The eluted pool was neutralized to pH 6.0 with 1 M Tris HCl pH 9.0, and subjected to a cation ion purification, HiTrap SP HP (Cytiva Life Sciences) to further remove impurities. The cation captured protein was washed with 10 mM sodium phosphate pH 7.0 for 10CV, then eluted in 0-30% gradient of 10 mM sodium phosphate pH 7.0, 1M NaCl for 50CV to separate the desired two targeting arm antibody (heterodimer) from the one targeted arm antibody (homodimer). […] Concentration of the formulated protein was measured by A280. Purity was assessed as percent monodispersed by analytical size-exclusion chromatography. Identity of the bispecific antibody was determined by Mass Spec (MS).

[15] = target: T1, CD3 expressed on cell-surface of …; experiment: flow cytometry competition vs murine SP34-AF488 on human T cells, average
Description: (§4) Binding of humanized SP34 Fab variants to CD3 expressed on cell-surface of primary human T cells was evaluated in a flow cytometry-based competition assay.

[16] = target: T1, CD3 expressed on cell-surface of …; experiment: flow cytometry competition vs murine SP34-AF488 on human T cells, n = 1
Description: as §4

[17] = target: T1, CD3 expressed on cell-surface of …; experiment: flow cytometry competition vs murine SP34-AF488 on human T cells, n = 2
Description: as §4

[18] = target: T3, biotinylated CD3 epsilon: delta heterodimer protein (Amsbio AMS.CDD-H52WO) (Homo sapiens (Human), UniProt P07766 23-126; P04234 22-105); experiment: BLI (Octet), corresponding huSP34 Fab variant
Description: (§5) The CD3 binding kinetics of the purified huSP34 Fabs were determined using OctetRed384 (Pall ForteBio, CA) biolayer interferometry (BLI). […] Streptavidin (SA) coated biosensors tips (Pall ForteBio, CA) were used to capture biotinylated CD3 epsilon: delta heterodimer and typical immobilization levels captured on the SA sensors were 1 nm which approximately translates to 300 ng/ml of captured protein. For kinetic measurements biosensors were first pre-wetted with assay buffer for 10 minutes to remove protective sucrose coating followed by the recommended regeneration conditions for standardization of the biosensor surface for the experiment. In order to load the biosensors with antigen, 300 ng/ml of biotinylated CD3 epsilon: delta heterodimer protein (Amsbio AMS.CDD-H52WO) was immobilized on the SA sensor for 900 seconds. The CD3 loaded biosensors were then blocked with 20 ug/ml biocytin (sigma) for 200 seconds and then dipped into assay buffer containing wells for 200 seconds to remove any non-specific protein or unbound CD3 heterodimer.
(§6) CD3 loaded and biocytin blocked biosensors were then transferred into fresh assay buffer for 200 seconds to collect a baseline read. Kinetic measurements for anti-CD3 Fab and bispecific antibody binding were performed by dipping the CD3-coated biosensors into wells containing multiple concentrations of Fab or Ab (0-300 nM) for 100 seconds followed by a 300 second dissociation time by transferring the biosensors into assay buffer containing wells. The CD3 loaded sensors were then regenerated for the next kinetic measurement. Biosensors were generated by removing bound Fabs or Ab from immobilized CD3 on SA biosensors. Regeneration conditions used consisted of 3 cycles of 5 seconds of dipping the biosensors in Regeneration Buffer (10 mM Glycine HCl pH 1.5) followed by Assay Buffer (10 mM sodium phosphate pH 7.4, 140 mM Sodium Chloride, 0.005% Tween20 with 0.2% BSA).

[19] = target: T3, biotinylated CD3 epsilon: delta …; experiment: BLI (Octet), huSP34 variant in Fab format
Description: as §5, §6

[20] = target: T3, biotinylated CD3 epsilon: delta …; experiment: BLI (Octet), corresponding huSP34 Fab variant; remark: listed apart in the source
Description: as §5
CD3 loaded and biocytin blocked biosensors were then transferred into fresh assay buffer for 200 seconds to collect a baseline read. […]

[21] = target: T1, CD3 expressed on cell-surface of …; experiment: flow cytometry competition vs murine SP34-AF488 on human T cells, average; remark: listed apart in the source
Description: as §4
(§7) A second round of huSP34 Fab variants were characterized using the same flow cytometry-based competition assay as described above.

[22] = target: T1, CD3 expressed on cell-surface of …; experiment: flow cytometry competition vs murine SP34-AF488 on human T cells, n = 2; remark: listed apart in the source
Description: as §4, §7

[23] = target: T1, CD3 expressed on cell-surface of …; experiment: flow cytometry competition vs murine SP34-AF488 on human T cells, n = 1; remark: listed apart in the source
Description: as §4, §7

Sequence of CD3 on rhesus monkey T cells in PBMCs (rhesus monkey) (P16003 26-458): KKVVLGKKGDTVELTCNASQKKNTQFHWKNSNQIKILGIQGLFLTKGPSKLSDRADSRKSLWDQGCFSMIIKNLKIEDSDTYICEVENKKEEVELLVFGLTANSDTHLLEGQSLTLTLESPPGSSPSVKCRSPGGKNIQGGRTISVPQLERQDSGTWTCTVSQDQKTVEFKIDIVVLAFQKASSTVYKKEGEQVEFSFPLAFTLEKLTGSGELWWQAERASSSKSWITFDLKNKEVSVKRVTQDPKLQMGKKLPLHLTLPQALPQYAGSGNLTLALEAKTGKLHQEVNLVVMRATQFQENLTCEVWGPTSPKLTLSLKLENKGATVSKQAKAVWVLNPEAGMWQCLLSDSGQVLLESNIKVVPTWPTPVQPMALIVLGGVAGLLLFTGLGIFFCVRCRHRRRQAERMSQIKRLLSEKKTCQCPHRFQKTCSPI

B1: hPGT121.66 AAS + W/huSP34.1.3 scFv AAS + SAV + RF (bispecific antibody, human IgG1, lambda, L234A L235A)
chain: not shown
heavy: QMQLQESGPGLVKPSETLSLTCSVSGASISDSYWSWIRRSPGKGLEWIGYVHKSGDTNYNPSLKSRVHLSLDTSKNQVSLSLTGVTAADSGKYYCARTLHGRRIYGIVAFNEWFTYFYMDVWGTGTQVTVSSASTKGPSVFPLAPSSKSTSGGTAALGCLVKDYFPEPVTVSWNSGALTSGVHTFPAVLQSSGLYSLSSVVTVPSSSLGTQTYICNVNHKPSNTKVDKKVEPKSCDKTHTCPPCPAPEAAGGPSVFLFPPKPKDTLMISRTPEVTCVVVDVSHEDPEVKFNWYVDGVEVHNAKTKPREEQYNSTYRVVSVLTVLHQDWLNGKEYKCKVSNKALPASIEKTISKAKGQPREPQVYTLPPSREEMTKNQVSLWCLVKGFYPSDIAVEWESNGQPENNYKTTPPVLDSDGSFFLYSKLTVDKSRWQQGNVFSCSVMHEALHNHYTQKSLSLSPGK
light: not shown
B1 was tested, and the “killing EC50, primary HIV-infected CD4+ cells, PBMC effector cells, isolate 657” value [1] was 1.61 µg/mL, the “killing EC50, primary HIV-infected CD4+ cells, PBMC effector cells, isolate 7552” value [1] was 0.107 µg/mL and the EC50 [2] was 0.33 µg/mL. It also gave an EC50 [3] of 0.35 µg/mL, an EC50 [4] of 0.36 µg/mL and an EC50 [5] of 0.42 µg/mL. The EC50 [6] was 0.44 µg/mL, the EC50 [7] was 1.02 µg/mL and the EC50 [8] was 0.33 µg/mL. The EC50 [9] was 0.4 µg/mL, the EC50 [10] was 0.55 µg/mL and the EC50 [11] was 0.41 µg/mL. For the same binder, the EC50 [12] was 0.68 µg/mL and the EC50 [13] was 0.32 µg/mL.

B2: hPGT121.66 AAS + W/huSP34.13.10 scFv AAS + SAV + RF (bispecific antibody, human IgG1, lambda, L234A L235A)
chain: EVQLVESGGGLVQPGGSLRLSCAASGFTFSTYAMNWVRQAPGKGLEWVGRIRSKYNNYATYYAASVKGRFTISRDDSKNTLYLQMNSLRTEDTAVYYCVRHGNFGHSYVSWFAYWGQGTLVTVSSGGGGSGGGGSGGGGSGGGGSQAVVTQPPSLTVSPGGTVTLTCGSSTGAVTTGHYANWVQQKPGQAPRGLIGGTNKRAPGVPARFSGSLSGGKAALTISGAQPEDEAEYYCALWYSNRWVFGGGTKLTVLEPKSSDKTHTCPPCPAPEAAGGPSVFLFPPKPKDTLMISRTPEVTCVVVDVSHEDPEVKFNWYVDGVEVHNAKTKPREEQYNSTYRVVSVLTVLHQDWLNGKEYKCKVSNKALPASIEKTISKAKGQPREPQVYTLPPSREEMTKNQVSLSCAVKGFYPSDIAVEWESNGQPENNYKTTPPVLDSDGSFFLVSKLTVDKSRWQQGNVFSCSVMHEALHNRFTQKSLSLSPGK
heavy: B1 heavy
light: not shown
For B2, the “killing EC50, primary HIV-infected CD4+ cells, PBMC effector cells, isolate 657” value [1] was 0.275 µg/mL, the “killing EC50, primary HIV-infected CD4+ cells, PBMC effector cells, isolate 7552” value [1] was 0.011 µg/mL and the EC50 [3] was 0.062 µg/mL. The EC50 [4] was 0.095 µg/mL, the EC50 [8] was 0.037 µg/mL and the EC50 [13] was 0.045 µg/mL.

B3: huSP34.13.8 scFv AAS + SAV + R (Fc fusion)
chain: B2 chain with P152E, S214L, F475Y
notes: also called huSP34.13.8scFv-Fc; parent
For B3, the “scFv-Fc Homodimer Yield Relative to WT (e.g. Protein A binding)” value [14] was 100%.

B4: huSP34.3.4 Fab-HF (Fab, V domains shown)
VH: EVQLVESGGGLVQPGGSLRLSCAASGFTFNTYAMNWVRQAPGKGLEWVGRIRSKYNNYATYYADSVKGRFTISRDDSKNSLYLQMNSLRTEDTAVYYCVRHGNFGHSYVSWFAYWGQGTLVTVSS
VL: QAVVTQEPSLTVSPGGTVTLTCGSSTGAVTTSHYANWVQQKPGQAPRGLIGGTSKRAPWTPARFSGSLLGGKAALTLSGAQPEDEAEYYCALWYSALWVFGGGTKLTVL
For B4, the IC50 [15] was 17.3 µg/mL, the IC50 [16] was > 20 µg/mL and the IC50 [17] was 17.3 µg/mL. For the same binder, the Kd [18] was 86 nM and the Kd [19] was 86 nM.

B5: huSP34.3.6 Fab-HF (Fab, V domains shown)
VH: B4 VH
VL: B4 VL with E7P, S32G, K55N, W59G, T60V, L69S, L77I, L97R
Binder B5 has an IC50 [15] of 4.75 µg/mL, an IC50 [16] of 8.48 µg/mL and an IC50 [17] of 1.03 µg/mL. The Kd [18] was 19 nM and the Kd [19] was 19 nM.

B6: huSP34.4.2 Fab-HF (Fab, V domains shown)
VH: B4 VH with N30S, D64A, Y114V
VL: B4 VL with H33N, K55N, A96N
For B6, the IC50 [16] was > 20 µg/mL, the IC50 [17] was > 20 µg/mL and the Kd [20] was 45.3 nM.

B7: huSP34.13.10 Fab-HF (Fab, V domains shown)
VH: B4 VH with N30S, D64A, S80T
VL: B4 VL with E7P, S32G, S54N, W59G, T60V, L69S, L77I, A96N, L97R
For B7, the IC50 [21] was 0.25 µg/mL, the IC50 [22] was 0.16 µg/mL and the Kd [18] was 1.8 nM. For the same binder, the Kd [19] was 1.8 nM and the IC50 [23] was 0.35 µg/mL.

B8: huSP34.13.8 Fab-HF (Fab, V domains shown)
VH: B4 VH with N30S, D64A, S80T
VL: B4 VL with S32G, S54N, W59G, T60V, L77I, A96N, L97R
For B8, the IC50 [21] was 0.25 µg/mL, the IC50 [22] was 0.14 µg/mL and the Kd [20] was 2.49 nM. It also gave an IC50 [23] of 0.36 µg/mL.
